Laboratory results reported in ChEMBL document CHEMBL2074348, “Human neurons express the polyspecific cation transporter hOCT2, which translocates monoamine neurotransmitters, amantadine, and memantine” (Mol Pharmacol, 1998).
“And” between values parts separate entries of the source, which are not always exact repeats. Equal entries are not always repeated.

Assays:
[1] = biological target: T1, Solute carrier family 22 member 2 (Homo sapiens, UniProt O15244); experiment: TP_TRANSPORTER: uptake in OCT2-expressing HEK293 cells; format: functional, cell-based
T1 sequence (O15244 whole entry): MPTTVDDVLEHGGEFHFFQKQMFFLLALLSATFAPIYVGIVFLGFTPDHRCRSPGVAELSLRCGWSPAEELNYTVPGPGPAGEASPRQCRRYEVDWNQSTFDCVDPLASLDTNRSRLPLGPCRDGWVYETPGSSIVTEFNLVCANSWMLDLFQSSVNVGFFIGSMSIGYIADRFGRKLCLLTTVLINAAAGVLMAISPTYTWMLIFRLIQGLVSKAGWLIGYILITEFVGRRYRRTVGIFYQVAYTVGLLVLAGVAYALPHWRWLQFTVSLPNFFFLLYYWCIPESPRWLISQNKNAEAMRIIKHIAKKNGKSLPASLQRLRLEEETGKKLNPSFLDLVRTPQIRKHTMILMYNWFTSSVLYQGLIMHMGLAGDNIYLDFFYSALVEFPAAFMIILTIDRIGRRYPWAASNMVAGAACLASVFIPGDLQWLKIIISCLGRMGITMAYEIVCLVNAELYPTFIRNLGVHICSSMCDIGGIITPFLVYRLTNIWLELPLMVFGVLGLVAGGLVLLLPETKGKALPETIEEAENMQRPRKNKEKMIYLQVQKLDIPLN

[2] = biological target: T1, Solute carrier family 22 member 2; experiment: TP_TRANSPORTER: inhibition of Dopamine uptake (Dopamine: 200 uM) in Xenopus laevis oocytes; format: functional, cell-based, Oocyte
[3] = substrate: NCCc1c[nH]c2ccc(O)cc12; experiment: (§1) TP_TRANSPORTER: uptake in Xenopus laevis oocytes; format: functional, cell-based, Oocyte
[4] = substrate: NC[C@H](O)c1ccc(O)c(O)c1; experiment: as §1; format: functional, cell-based, Oocyte
[5] = substrate: NCCc1ccc(O)c(O)c1; experiment: cells, lysate or membranes named
[6] = substrate: NCCc1c[nH]cn1; experiment: cells, lysate or membranes named
[7] = substrate: CC12CC3CC(C)(C1)CC(N)(C3)C2; experiment: (§2) TP_TRANSPORTER: uptake (electrogenesis) in Xenopus laevis oocytes; format: functional, cell-based, Oocyte
[8] = substrate: NC12CC3CC(CC(C3)C1)C2; experiment: as §2; format: functional, cell-based, Oocyte

Molecule: C[n+]1ccc(-c2ccccc2)cc1
- Km [1]: 16 µM

Molecule: NC12CC3CC(CC(C3)C1)C2 [AMANTADINE]
- IC50 [2]: 23 µM

B1: Solute carrier family 22 member 2 (Homo sapiens) (protein)
chain: T1 sequence (O15244 whole entry)
- Km [3]: 80 µM
- Km [4]: 1900 µM
- Km [5]: 330 µM and 390 µM and 520 µM
- Km [6]: 1300 µM
- Km [7]: 34 µM
- Km [8]: 27 µM
